Results published in the DeepSol protein solubility set.

Test: soluble on expression in E. coli; label from the status in PepcDB or PDB records

| Sequence | soluble on expression in E. coli |
| --- | --- |
| MSLATKDPTAVERANLLNMAKLSIKGLIESALSFGRTLDSDYPPLQQFFVVMEHCLKHGLKGRKSFLSYNKTIWGPLELVEKLYPEAEEIGASVRDLPGLKTPLGRARAWLRLALMQKKMADYLRCLIIQRELLSEFYEYHALMMEEEGAVIVGLLVGLNVIDANLCVKGEDLDSQVGVIDFSMYLKNEEEIGNKERNVQIAAILDQKNYVEELNRQLNSTVSSLHSRVDSLEKSNTKLIEELAIAKNNIIKLQEENHQLRSENELILMRTRQHLEVTKVDVETELQTYKHSRQGLDEMYNDARRQLRDESQLRQDVENELSVQVGMKHEMELAMKLLEKDIHEKQDTLIGLRQQLEEVKAINIEMYQRLQGSEDGLKEKNEIIARLEEKTNKITTAMRQLEQRLQQAEKAQKEAEAEDEKYAQECLSQSDSLQRQISQKEQQLVQLETDLKIEKEWRQTLQEDLQKEKDVLSHLRHETQKVISLKKEFLNLQDENQQLKRIYQEQEQALQELGSKLCESKLKIDDIKEANKALQGLVWLKDKDATHCKLCEKEFSLSKRKHHCRNCGEIFCNACSDNELPLPSSPKPVRVCDSCHAMLIQRCSSNMPEGHHHHHH | not soluble |
| MRLVYGLGRSGLGVLRFLRKRGLPARFYDDRPREEEVREALALGFQPDWNLEEAYEEVVAAPGVPLDHPHLKRLAARGAKVLGEAELAYRLSPTPIVGITGTAGKTSTTLFTAHLLRAHGLRAREGGNVDPPLVSVVDEAEVAVAELSSFQLERVHAFRPRVAVLLNLGVDHLDRHGTVEAYHAAKLNLLKNLTPEDALVYNRLDPKVRRAAEASPARLYPFTPGSTPRETNLRAVLEATRAYLDLLGRPLDPGAVAEALRTLPEAPHRFQAFARKGGVVFIDDSIATRTEAVRAALEAVPAPIAWILGGEDKGADLAPLLPLLGRVRVALALGRDGPRFARALEGRTEVVVIAEKDGRTAMRKAVEEALSRLEQGSVLLAPLAASFDQFRDYKDRAQAFREAVFALGGEPWTPSSS | soluble |
| MLLPWLFPQTKRNNFAAKVNSENQEKLLILRKEDASASSGQSELSLVQMGLKQVVASSFWLVFEFQHFKVGCNAARKFPVNGIANAQPQQCGTYRSHNGKLSIAIGHFCRIHQRAHTHFAIAKIAEFNPAVHCHHVVWHLFWRTHLGAIQLCV | not soluble |
| MHNQTVRATVFKANAAAPQTKQIYEDDFSELYGEDIIAPPYNIIELKTIAEYSTILQQCIDAYRVNITGFGFDVEYTFDVNASDVDQAKKKRAEKDWARLEAFYKCLHFDESAEMILGYAIEDREKTGNGFMEVLRDGAGKPAGIEYLDVKYMRVCGAGEPVEVSFVYEENGKMKRIKRQKRFRKYVQMINGKKVFFKEYGDPRKMDIRTGEYVNTLAEKYQANEAIHLKIGSGVYGVPRWIGNIVNLYGARKAEELNFMYFKQGRHVPAAITVENGMLSEASYRELQEYMNDLESVENAHKFLLIEAEGIAKEKDLHGGEDITPVSVEIKSLAEILQNDALFLEYDEKSRNKLRSAFRLPPLYTGEAQEYNRATADTARKITEEQVFQPERKTLVNKLNTLLLPELNIHDVRLTLKGPDFRDPLEIAKVLGPFITAGAVSPNDLRDLAGRVLGKTLEEWPEDIYKRPAGQDAEKTNLAALMQELKESIEDIKTS | not soluble |
| MGSDKIHHHHHHMPFITKISTQKKNTERFNIFLDDKYAFSVDADVLVKFELKKGKELDDLDIIEIQYGDEVKKGFNRALDFLSYRMRSTKEVEDHLKKKETSPPVIAEVIHRLNDYKYLNDQEFAAAYVSTHKKTNGKGPDVLFRELRAKGIDDDTIKEALSSFSFEDQTREAVKHVEKLLKKDKKLSTKELKQRAQLQLQRKGFSFDVISAAMDQIEYENDEDTEKEALRLHAEKAFRKYRYDGSYESAMKVKQFLFRKGFSLDLIEQLLQEEEY | not soluble |
| MGSDKIHHHHHHLRDATSQIGQTVVGEAVRLVSFRPLGNLANHTLLMAAIVMMQSKHPDQFEKSNEILDTLMEREMHHPVVLTWAGIWHVMRVQKGLSGDRRKSTLMAENLANAALAQDPAFSLAHTLKGMIASYLTFDFDNAQYSYDKALQDNPNEALALLLKGATRAMQNRPDEGVVLTEAARKLTPLGPQRYYFDSLAAAVSLAARDYNRAIELADRSLEENDSYPSTLRTKAIALQMSGRSDEARHVVESLMKVTPDFSLSRYMQEHAAGFTPSGPDWASALREAGVPE | not soluble |
| MGSISRYLLKKAADGLKDEQRLKIEMSDSKSVPECFHFNRERRMPIAEINGEDGFFMFPSQQSLENFENTKKYSNELSPDAIGIPLFQIINCTLPFGKRGHSNTVVGNVPYYKIFKFILRTADEPPPYTVAKIVCSNNGLILYKVPLYDIYKNVSQANVTYSFVGTTSTEPNLLAMAHREGHRDLDTKVNNLNLRWHVTYSPVVTNDHYKLILLADYEVNRLDEDVIRAAKNKMSIDQKDQKVQRFVAAHYTREFETSLFRWVAQEGHLILGEYSTDQGSFGLNNIPPLTEELGCQSLLIHYIEYMKRQRKKIAKEARRQNKRNVANTTNMNMNLM | soluble |
| MLEQLPYLALKTPPKTTALLKAECADFIVKEHLGYEMSGDGEFVALYVRKTDCNTLFVGEKLAKFAGVSERNMGYAGLKDRRAVTEQWFCLQMPGMETPDFSQFELDGVEILTVTRHNRKIRTGSLEGNYFDILLRGAEESDELKARLDFVANFGFPNYFTEQRFGRDGHNLTQALRWAQGEIKVKDRKKRSFYLSAARSEIFNLVVAARIEKSTINQVLPNDIVQLAGSHSWFKADEKEDLTALQVRLENQDILLTAPLIGEDILAASEIENEIVNQHSAFDPLMKQERMKAARRPLLMKAKGFSWAFEPEGLRLKFYLPAGSYATALVRELVNYTEE | soluble |
| MPNDMTHIDKIQALAFSIGKKMQTELLEQMQATGLTPPQFYILKILDHYGASRATTLAKKMYVKPSAITVMIDRLIDQELVERYHDKDDRRVVIIELTKKGKARVEEAMTARNEHIAKYFSHLELQEREDLLRLFEKLETIICGTQEKKENN | not soluble |
| MAHHHHHHMAKEVTTNHCNNSKWWKGRPYAKIPDGPAQRQAAVTISAILATAEATRLKHDNLKSTAAQAHSLAITAIKDAFYGKGETEAGDAFAYTKAEKCGRTTATGTAGAAIVEDLICLCTKGGGGQTTECYTSGPADVGKNKVGGVKVIVNDMIDHCPNISAELHLKPALITRRIAAFYAELGRQDGKKQYNKKSKNRGSGCNWMCSARS | not soluble |
| MSLRIFLCGCVHGSWEVVVNEVNKLVAKGTKIDLIIVAGDTESFRSKSDLESYNYQRQNHDLGTFHKLVSGELKLPCKMLMIGGNNEVGDMIFQLPFGGWVTPDIFFAGINSQIYFGDLLITCQSGIMNGQDYHKCISEKFPVRGCDTHLILHIREVSIFQLYGLKNVPLFVSHEWPSGIPKQYRNIPRMQFYAKSDDKNDFGCPGFVKLLNKHRPKKWYAAHLHVRFDCTLKNGTKFTGVPKVIDKRYKWYELEEYNCNPAGGFKFSGEWINIVKNTERFVKNPKLLQNLDWDEEWRKIYETMNTEDFPEKVDVMEYNDDYQIQTKKFCDSYQIYNPYKEGHHHHHH | soluble |
| MKLSAQSHASIASSLREAVDKYIADGERTVVTDIHLQPKQDSGELVIFNDDDEELSRTIIEEWVDYSEDDFYTIVERILRGEINALKDTGVLDKLAIMKPYSFVLVDEDRETVTELLLIDDEDTLLLNDELLKGLDEELDAFLKDLLEKLEHHHHHH | soluble |
| MGIFSRFADIVNSNISALLDKAEDPEKMIRLIIQEMEDTLVEVRTNSAKAIADKKELARKVEMLEEQIGEWGQKASLALVKEREDLARAALIEKQKLEQVVKGLHTEQTLVEETINKLTGEIGKLENKIAETRAKQQALAIRNQTASNRRDVQKHLHTSRTNEAMAKFDQYSRKIDEMEAEADLYAQTGNAKSLEQEFAELQAQDEIEKELAKLKEQMSSQDKLEHHHHHH | soluble |
| MGSDKIHHHHHHMKTIMYLHAGAEMYGSDKVLLQLVTGLDKKQFKPIVVLPEHGPLEKALETNDIQTEVVAYPILRRKYFNPKGIFNYASGYFKAEKVLANLAIKYHVDLIHVNTLAVLEGITLKKRIKKPLIWHVHEILLSPKFMWKLTAYLSAKYADKIVVVSNATGEHLKKAGYAKENQIVTIYNGINIPKGLENSDFRQEFDIPKNAFVFGHVGRINAWKGQEDFLKASLKLMSNYSKVHVLFSGNAYKGEEWREEKLKKEINESGFSDRIHYLGFQHEIRKVFNTMNVFVSSSIRPDPFPMVTLEAMANSKPIVSYDHGGPSELIVNAKTGYLVQPHNIDDLSLKMSMLINPKLESKFGVVGRKRVLSEFSETKFLQNFSFLYGDM | not soluble |
| SNAMSDTLYIKMDQAVEITKKQVTVGDVAKLQCKNKNITNRLKSMKLLEDTTKGKKRYIVSIMKIIEMADQTFQNVDIQNIGETECVVEFKTPKKDDGPM | soluble |
| DIGCYTLGIQSGTVETTLCMGSSISIASGLYHAGEKRPICCSIGDSTFFHTGMNSLLNAVFNKANITVTILDNRITAMTGHQPNPGVGFTVTGEPTVEVSLAELCKAMGAGFVTVVDPYNLEETQEAFKAAKEFEGTAVVIAKQPCVISGKRAGI | not soluble |
| MQKTIYDVSFINGEVKTFTPLMLDNVMAEKELVARGGNIRENSIEFMAILTHKVCRRTYRENTPLDLDIFLESVLDIDTRVEEVTTFPEQNLDAHGPEPRHRT | not soluble |
| MAKDGGVSCLRRSEMIGIGIGELESPPLDSDQVHVLAVDDSLVDRIVIERLLRITSCKVTAVDSGWRALEFLGLDDDKAAVEFDRLKVDLIITDYCMPGMTGYELLKKIKESTSFKEVPVVIMSSENVMTRIDRCLEEGAEDFLLKPVKLADVKRLRSYLTRDVKVAAEGNKRKLTTPPPPPPLSATSSMESSDSTVESPLSMVDDEDSLTMSPESATSLVDSPMRSPGLA | not soluble |
| MAEVERQDKYLRQRNKYRFHIIPDGNCLYRAVSKTVYGDQSLHRELREQTVHYIADHLDHFSPLIEGDVGEFIIAAAQDGAWAGYPELLAMGQMLNVNIHLTTGGRLESPTVSTMIHYLGPEDSLRPSIWLSWLSNGHYDAVFDHSYPNPEYDNWCKQTQIQKKRDEELAKSMAISLSKMYIEQNACS | soluble |
| MALATRNLKVIHIKRIENSRSSLIRANHGSKGIIHLILDQAPYHRADKVKEKAKKLVIHLNYLPPYSPNLNPIERLWKVMNEKVRNNRFFNSAKDFRREIERFFTEILPDIGASLGQSINDNFQLEHHHHHH | not soluble |
| MAHHHHHHMRSNGAAHIGNNTFLAVTRDVTDTAFLFSSSFSPAEQLVRLPLSRKTRFLPHASLACGEAERSEYAESAARAGPPTKDVDVKEAVASAAAASTPLFCHSAHASPDGHKIAFISNVRRHHYIIDISVLPAAVCELEMPEVVQSVCWHTVAHHALCVLFISGDLTIYDTDQSYLGVIVPLYRRIALRPVIERRLADAEAAVHPSPSIPSTAPGTISPAKGATALDKEEVQSTRVKALAGKVSTTRLPPARQAHATTAEVAGFRSLVLHSGGGAIVAGSDIAHSPSYAVAERIDHDEMVPVSSADEVGAEGAASCPPIPKPVMLPTSQLDLVDMYALPPTESIPVILLLSSSGDVYAVHLGDDCLPVVATAAATDDGRVRTREEEVLRRAEVAAAPLSVEVYHLISGDSTGAAGDEAVAVGGCLVDEDAGTHAVFFLTANGLVKGAWVSKPDLLARHRVAHVRAVGSPNISFTLHLSGSLGARASLAPAVPSITHSVSMTLSQNVCVVRSGVAGETAFVMAFPRWDRRRQGWACWRPACADAREREREAAALPLLSTDAAPPSPVALRLPYDTRDSSIAVGCTELLLVPEVSTMDGLCERGSILVISLAAVLRSALYARCGKLGLHPSAGAGATSRLRDPHPAVLDLLNAVPECHRCWLRGVPEAEMSAATLNLVRRIEQLSGDVNRREMVQAQRRRRLVARVANLEGRVAEMDGMLAEWRQIILDGIVHRRGGDAFRTANARLRKVSTMLNELEQQL | not soluble |
